This passage reports amyloid nucleation score results from the supplement of paper PMC12042874.

± gives the uncertainty stated by the source.

The data set can be described thus: amyloid nucleation score (Sup35N fusion, yeast selection) (log enrichment); library NNK1; higher = more nucleation; inactive = no reads after selection. The gist of the method: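 DiMSum was used to calculate nucleation scores as log enrichment of output over input reads, centred on the mode score of non-aggregating sequences. Sequences with fewer than 100 input reads were not scored. Input and output came from Illumina sequencing of plasmid inserts in psi-negative yeast expressing peptides of 20 random codons fused to Sup35N, induced 24 hours with 100 μM copper sulfate and then grown 7 days at 30°C on medium lacking adenine and uracil.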

GNCKGKRPSRGGRCSGQ showed an amyloid nucleation score of 1.2 ± 0.58. With GNRSSS the entry was “inactive”; with VRDKSGPYYSSV, 0.705 ± 0.4; with QATYCGLIIPSGLIYPDYTV, -0.442 ± 0.54. ASFITGWMANTYN showed an amyloid nucleation score of 0.385 ± 0.42. Next, LYAHYRADVHEEKSLYYVIA: 0.101 ± 0.23. In turn, RALSVRSRQLG returned an amyloid nucleation score of 0.135 ± 0.97. Next, ADACVRFLRGYYFNGFPMRW: 1.03 ± 0.9. Take PLAHLSRLEESYWPSQTHPS: the amyloid nucleation score stood at 0.091 ± 0.54. Next, SYSMQRRKCTPAFCFA: -0.36 ± 0.54; KGVCMTRHD: -0.136 ± 1.6. With INVIYNICFQVSW the figure was 8.413 ± 0.052; with TTVRGASANHVLTCYCPHYL, 0.601 ± 0.82. With HFGKRHSYRYLDDTCAQNLY the figure was -0.811 ± 0.63; with NTDLTNRSDYLYIV, -1.78 ± 1.2; with FMSYD, 0.362 ± 0.79. YVIHLPKCTKLWMWANCFLW had an amyloid nucleation score of -0.215 ± 0.62. Consider SGYTGDDFQLKVEG, for which the amyloid nucleation score was -0.307 ± 0.39. On to MFLIGFDGTYERSSLF, for which the amyloid nucleation score is -0.106 ± 1.7. With RSMDRTGSIAGRYCVKKMSS the figure was 0.423 ± 0.3; with DYSLKCLTPVVSDRAWCRLN, 0.398 ± 0.83. With SDGQNRTTMTYFPSVGWVSS the figure was -1.98 ± 2.7; with FMYKMGSYGMDM, -0.57 ± 0.5; with RVLNMFYVMNCAIFWVVEAC, 2.49 ± 0.18. WLNWSSYRRTISKLVRGFFS: the amyloid nucleation score was -0.295 ± 1.9. With RTCHSQICFSGRMYRLFVMI the figure was 0.41 ± 0.48. With AEASKYVMYIKARCMQLMRS the figure was -0.931 ± 1.1. With ACFEFKLGTFRLGAALNYPG the figure was 1.03 ± 0.31; with VGAFVSRVSLLDADGLLLGS, -0.09 ± 0.61; with SSKIRLFRDNTQYNGRWGSY, “inactive”. The substance LMYWLLLMEIRYNLKPLNRL gave an amyloid nucleation score of 2.29 ± 0.084. Substance IPENCSGLYWLGNYVPSIAD registered an amyloid nucleation score of -0.439 ± 0.34.

In turn, DLAWWMSCAHFMSMTRGLQR returned an amyloid nucleation score of 0.595 ± 0.36. Next, TLCERGPPMMYCKC: -0.526 ± 0.45; VYLGRFTPDGVMNYYNYSYV: -0.763 ± 1.4. Turning to VRGPGDGFWLEDGTGSHSYR, the amyloid nucleation score is -0.078 ± 0.42. With YCVKV the figure was 0.308 ± 0.62. Next, FSDCCLSAKRA: -0.46 ± 0.73; SRYYFHFELFVWR: 0.291 ± 0.7; FVLERTGIRLLCL: 0.363 ± 0.38. Substance WRRNGNAGMSNQCWVRVKFK displayed an amyloid nucleation score of 0.775 ± 0.46. With PRNQNMT the figure was 0.992 ± 1; with TRSGYAHARSSAAQSFTL, 0.622 ± 0.33; with TLQLCLSSCWYKGRRVGLEC, 0.483 ± 0.3.

For the substance NGVSTVEYVMFKFSIAFAMF, the amyloid nucleation score was found to be 6.583 ± 0.046. With SRFDGTNIVCSSGMWFCAWK the figure was 8.35 ± 0.045. With VVYHVFFWELTNAKHNLPML the figure was -1.17 ± 2.4; with DNRLVSSGMRRGHSGWIGGT, 0.505 ± 0.71. With DGSCKLYVVFRPAVLGHGHS the figure was 1.05 ± 0.85. The substance VKLFSVNKNNMTVPSTALCS displayed an amyloid nucleation score of 5.969 ± 0.047. As for LDCYRLRCSLEAIECVISNE, the amyloid nucleation score was -0.479 ± 0.21. RFFCDCFFGSRGE gave an amyloid nucleation score of 1.88 ± 0.36. Next, KSQDKRYLSIPGCVLSFWGE: 0.069 ± 0.46; QCSCSKWLAIRDWDGSSKMK: 0.082 ± 1.6.

In turn, CLQWPEYPDYSVGGAFRRTG had an amyloid nucleation score of -0.311 ± 0.48. On to MPDYVVGYHGGWSCNLILRF, for which the amyloid nucleation score came to 2.54 ± 0.19. Consider NRRVSLCRASCSIMRVKPLG, for which the amyloid nucleation score was -0.261 ± 0.56. With WVSANKSNCQMYSGTQTPCE, the amyloid nucleation score entry was “inactive”. With VWVKAMSFFWVIALPHAVYV, the amyloid nucleation score entry is “inactive”. With GWHTQVMVVTSVSMLGVWT the figure was 0.487 ± 0.24.

On to LYCFIMDFLLGFKHCMCKGV, for which the amyloid nucleation score stood at 1.55 ± 0.44.

On to CYLCSSSF, for which the amyloid nucleation score turned out to be 1.67 ± 0.24. FAFTIFPCYYWDLNCLRFQH: the amyloid nucleation score was 6.549 ± 0.047.

As for LPDVKCVLLLMLHLEASRSA, the amyloid nucleation score is -0.21 ± 0.58. WYLGNAPRGATRA: the amyloid nucleation score is -0.229 ± 1.

CIIVNMFYWALFYFGSEMFS displayed an amyloid nucleation score of 0.738 ± 0.53. In turn, IYVITVRPNVHNTLMHLIVT showed an amyloid nucleation score of 0.374 ± 0.73. With LQFGWFMIYLIKFSPNLRGN the figure was -1.18 ± 1.7. With MHLVQSCYLVIPRVLDPELV the figure was 0.313 ± 1. As to DYGDYCAKWTQSYNALTVRF, the amyloid nucleation score worked out at 0.594 ± 0.58.
